± gives the standard deviation of the averaged measurements.
B1: library; a variant is named by its letters at N, in order (parent)
chain: GCUGUCACCGGUGCUUGGUACGUUAUAUUCAGCCGGUCUGAUGAGUCUNNNNNNAGACGAAACAGC

What was measured:
(6R,S)-folinic acid [1] = variants of: B1; experiment: FACS-Seq fitted mean relative fluorescence mCherry/BFP without ligand (log10 relative fluorescence); HEK293T overexpressing SLC46A1; higher = higher reporter protein expression; conditions: without (6R,S)-folinic acid; ligand present: no
Protocol: (§1)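 Hammerhead (sTRSV) ribozyme switch libraries with a ligand aptamer grafted on stem I and a randomized N4-6 loop II, cloned into the 3' UTR of mCherry and transiently transfected into HEK293T cells; RNA-Seq 72 h post transfection with ligand added 1 h before transfection; RNA read count / plasmid DNA read count normalized to the non-cleaving sTRSVctl (x100), log10; sequences with >100 DNA reads. FACS-Seq: lentiviral library sorted into 6 bins after 48 h ligand, log-normal fit mean of mCherry/BFP scaled to controls. Printed sequences are partial switch sequences.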

(6R,S)-folinic acid [2] = variants of: B1; experiment: normalized RNA/DNA level without ligand (relative to sTRSVctl = 100) (log10 (% of sTRSVctl)); HEK293T overexpressing SLC46A1; higher = less ribozyme self-cleavage, higher mRNA level; conditions: without (6R,S)-folinic acid; ligand present: no
Protocol: as §1

(6R,S)-folinic acid [3] = variants of: B1; experiment: FACS-Seq fitted mean relative fluorescence mCherry/BFP with ligand (log10 relative fluorescence); HEK293T overexpressing SLC46A1; ligand concentration (+) FACS-Seq: 6 mM; higher = higher reporter protein expression; conditions: with (6R,S)-folinic acid; ligand present: yes
Protocol: as §1

(6R,S)-folinic acid [4] = variants of: B1; experiment: normalized RNA/DNA level with ligand (relative to sTRSVctl = 100) (log10 (% of sTRSVctl)); HEK293T overexpressing SLC46A1; ligand concentration (+) RNA-Seq: 6 mM; higher = less ribozyme self-cleavage, higher mRNA level; conditions: with (6R,S)-folinic acid; ligand present: yes
Protocol: as §1

Variant	FACS-Seq fitted mean (log10) ((6R,S)-folinic acid [1])	normalized RNA/DNA level without ligand (log10) ((6R,S)-folinic acid [2])	FACS-Seq fitted mean (log10) ((6R,S)-folinic acid [3])	normalized RNA/DNA level with ligand (log10) ((6R,S)-folinic acid [4])
UAACUU	0.511 ± 0.0079	1.994 ± 0.011	0.408 ± 0.12	2 ± 0.045
AAAAAU	0.39 ± 0.039	1.944 ± 0.011	0.512 ± 0.13	1.99 ± 0.029
AAAAAC	0.164 ± 0.051	1.985 ± 0.015	-0.16 ± 0.076	1.99 ± 0.034
AAAAAA	0.489 ± 0.019	1.948 ± 0.013	0.43 ± 0.029	1.97 ± 0.036
AAAAAG	0.431 ± 0.18	1.914 ± 0.0037	0.605 ± 0.12	2 ± 0.045
AAAACU	0.355 ± 0.07	2.024 ± 0.00081	0.358 ± 0.15	2.03 ± 0.035
AAAACG	0.631 ± 0.022	1.93 ± 0.0068	0.582 ± 0.16	1.99 ± 0.015
AAAACA	0.359 ± 0.036	1.988 ± 0.0088	0.304 ± 0.0079	2 ± 0.024
UAAGCG	0.384 ± 0.026	1.736 ± 0.0051	0.777 ± 0.031	1.96 ± 0.045
UAAGCA	0.463 ± 0.0091	1.9355 ± 0.00085	0.377 ± 0.12	1.99 ± 0.021
UAAGCU	0.334 ± 0.089	1.992 ± 0.014	0.436 ± 0.13	2.021 ± 0.0075
CAAUUC	-0.0653 ± 0.041	2.019 ± 0.012	-0.136 ± 0.18	1.998 ± 0.016
CAAUUA	0.413 ± 0.065	1.963 ± 0.016	0.429 ± 0.07	1.989 ± 0.015
UAAUGA	0.29 ± 0.014	1.872 ± 0.006	0.227 ± 0.042	2 ± 0.022
UAAUGG	0.152 ± 0.043	1.601 ± 0.011	0.399 ± 0.18	1.923 ± 0.0091
UAAUGC	0.147 ± 0.059	1.946 ± 0.017	0.234 ± 0.13	1.98 ± 0.032
UAAUGU	0.615 ± 0.038	1.896 ± 0.0068	0.695 ± 0.092	2 ± 0.055
UAAGAG	0.104 ± 0.05	1.667 ± 0.0094	0.3 ± 0.061	1.96 ± 0.038

Variant	FACS-Seq fitted mean (log10) ((6R,S)-folinic acid [1])	normalized RNA/DNA level without ligand (log10) ((6R,S)-folinic acid [2])	FACS-Seq fitted mean (log10) ((6R,S)-folinic acid [3])	normalized RNA/DNA level with ligand (log10) ((6R,S)-folinic acid [4])
UAAGAA	0.023 ± 0.078	1.882 ± 0.011	-0.19 ± 0.37	1.96 ± 0.022
AAAUUG	0.0771 ± 0.044	1.921 ± 0.0078	0.102 ± 0.18	2.02 ± 0.061
AAAUUU	0.415 ± 0.0088	2.053 ± 0.0076	0.218 ± 0.093	2.05 ± 0.039
AAAUUC	0.629 ± 0.14	2.03 ± 0.0039	0.471 ± 0.059	2.018 ± 0.016
CAAGUU	0.055 ± 0.13	2 ± 0.021	0.00566 ± 0.18	2.03 ± 0.046
GAAGUA	0.299 ± 0.013	1.966 ± 0.0082	0.331 ± 0.045	2.014 ± 0.019
GAAGUG	0.327 ± 0.098	1.8629 ± 0.0002	0.369 ± 0.033	1.99 ± 0.026
GAAGUU	0.522 ± 0.18	2.007 ± 0.0088	0.481 ± 0.2	2.04 ± 0.03
CACACA	0.66 ± 0.12	1.97 ± 0.026	0.319 ± 0.036	1.98 ± 0.031
GAAUUG	0.416 ± 0.035	1.928 ± 0.0066	0.46 ± 0.014	2 ± 0.066
GAAUUA	0.508 ± 0.088	2.0059 ± 0.0002	0.572 ± 0.15	2.03 ± 0.031
GAAGCU	0.0826 ± 0.071	2.018 ± 0.015	0.0358 ± 0.15	2.04 ± 0.022
GAAGCA	0.272 ± 0.031	1.967 ± 0.015	0.486 ± 0.021	2 ± 0.024
GAAGCG	0.117 ± 0.13	1.929 ± 0.012	0.259 ± 0.065	2.02 ± 0.034
CAAGCU	0.363 ± 0.071	2.047 ± 0.0037	0.443 ± 0.099	2.05 ± 0.043
CAAGCA	0.195 ± 0.065	2.018 ± 0.012	0.434 ± 0.14	2.03 ± 0.032
UAACGC	0.334 ± 0.0089	1.993 ± 0.008	0.0549 ± 0.066	2.02 ± 0.045
UAACGA	0.256 ± 0.05	1.93 ± 0.0022	0.34 ± 0.11	2.01 ± 0.036

From the supplement of paper PMC6757056
